Source: US10487318

B1: Homologue 1 (NCBI YP_005536585) (protein)
chain: MAPSDVEIVDPVAPEERITVTVLLRRRSSIPDQLIEGPDTLSRAELADRHGADPADVEAVRVAMSGAGLTVVGTDLPSRRVTVAGTAEALMRTFGAELQIVRDASGFQHRARSGELRIPAALDGIVIAVLGLDNRPQAEARFRASQPEAARSFRPDALGRVYRFPANTDGTGQTIAIVELGGGFRQSELDTYFGGLGIPAPQVLAVGVDGGQNLPSGDAGSADGEVLLDIEVAGALAPGARQVVYFAPNTDRGFVDAVTTAVHADPTPAAVSISWGAPEDKWTAQARRAFDAALADAAALGVTVTAAAGDRGSADGEGGGGLHTDFPASSPHLLACGGTKLAVADGGTVASETVWNGGERGGATGGGVSVAFGLPAYQRNAGVDKRRKTGKPGRGVPDVAAVADPATGYEVLVDGEQLVFGGTSAVAPLWAALVARLTQALGRPLGLLNTALYDGAQPGRTQPGFRDVTEGDNDISGKHGPYPARAGWDACTGLGVPDGEALLAALRKPGKE
B2: Homologue 4 (NCBI ZP_10028298) (protein)
chain: MANHPLNGSERECLKDAQPIGKADPNERLEVTMLVRRRSHDAFEKHISALAAQGASAKHIDHDEFTKHFGADSADLAAVHAFAQKHGLSVVESHEARRAVVLSGTVAQFDAAFGVSLQQYEHDGGTYRGRTGPIHLPDELNGVVDAVMGLDNRPQARPSFRTRAQGNVRWTARAAGASTFTPVQLASLYDFPQGDGQNQCIGIIELGGGYRPADLKTYFASLNMKAPSVTAVSVDHGRNHPTGDPNGPDGEVMLDIEVAGAVAPGAKIVVYFAPNTDAGFIDAIGTAIHDTKNKPSVISISWGGPESAWTQQAMNAFDQAFQSAAALGVTICAASGDNGSGDGVGDGADHVDFPASSPYALGCGGTSLQASGNGIASETVWNDGANGGATGGGVSSFFALPAWQEGLRVTRAGGAHSPLAMRGVPDVAGNADPVTGYEVRVDGHDMVIGGTSAVAPLWAGLIARINAIKGAPVGYINPHLYKDPLALVDITKGNNDDFHATAGWDACTGLGRPDGKKVKDAVS
B3: Homologue 6 (NCBI YP_003109679) (protein)
chain: MAPEERRTLPGSAMPRPAGAQVLGQIPDDERVEVTVVLQPRAPLPEPGPTPMSRAELADLRSPPEGALEAIARYVAGQGLEVIAADAPRRRIVLAGSAARIAALFGISFVRLQLEGRRYRTYEGEISLPAELAPLVVAVLGLDTRPFARSHRRPAVAPNAPTTAPTVARAYDFPTAYDGRGTTIGFIELGGGFQESDLVRYCEGLGLSTPQVSVVGVDGARNAPTGDPNGPDAEVMLDLEVATGVANGADLVLYMAANTDAAFYSAIATALRDATHAPVAISISWGAPEESYPATTIAAFESVLEEAVHVGVTVLVAAGDQGSTDGVDDGRAHVDYPAASPYVLACGGTRLDLDGTTIVAETVWNDLPNGGATGGGISALFPVPSWQAGIAMPPSANPGAGPGRGVPDVAGNADPDTGYRIVVDGVATVVGGTSAVAPLWAGLVARCHQAGARGGFWNPLLYAARGSSAFHEITVGSNGAYDAGPIWNACCGLGSPNGTAILQTLRA
B4: Homologue 5 (NCBI ZP_09078202) (protein)
chain: AGRTSYTPLEVAALYNFPSIHCKDQCIGILELGGGYRPADLQTYFNGLGIPQPNITDVSVGGAANRPTGDPNGPDGEVVLDIEVAAAVTPGAKIAVYFADNSDDGFLNAITTAIHDTRNKPSVISISWGKAEIGWTPQAINAMNQAFRDAAALGVTICCASGDDGSTDRVQDGRYHVDFPASSPYVLACGGTRLESSGSTITQEVVWNEGALGGGATGGGVSDVFDRPNWQANANVPTSANPERRIGRGVPDWAGNADPATGYQILVDGTRAVIGGTSAVAPLFAGLIAIINQKLGHSVGFINPILYNLSAQHNVFHDITSGNNDMSGQNGPYEAQPGWDACTGLGSPDGTKLMNAISEAHRLVSVG
B5: Homologue 2 (NCBI ZP_04943175) (protein)
chain: MQRGTKEGLNMARHLQADREPRIVPESKCLGQCDPAERIHVTIMLRRQEEGQLDALVHQLATGDARAKPVSRDAFAQRFSANPDDIRKTEDFAHRHQLTVDRVDPVESVVVLSGTIAQFEAAFSVKLERFEHRSIGQYRGRSGPIVLPDDIGDAVTAVLGLDSRPQARPHFRFRPPFKPARGAAAVTFTPIQLASLYDFPAGDGAGQCIAIIELGGGYRAADIQQYFRGLGITTPPKLVDVNVGTGRNAPTGEPNGPDGEVALDIEIAGAIAPAAKIAVYFAPNSDAGFIQAVNAAVTDKTNQPSVISISWGGPEAIWQAQSAQAFNRVLQAAAAQGITVCAASGDSGSGDGLQDGADHVDFPASSPYVLGCGGTQLDALPGQGIRSEVTWNDEASGGGAGGGGVSALFDLPAWQQGLKVARADGTTTPLAKRGVPDVAGDASPQTGYEVSVAGTPAVMGGTSAVAPLWAALIARINAANGASAGWINPVLYKHPGALRDITKGSNGTYAAASGWDACTGLGSPNGAQLATILARKPSS
B6: Homologue 15 (NCBI YP_002754884) (protein)
chain: MSPIASRRSALPLSERPAPENARALAAVEPDRTMTVSVLVRRKKPLVLADLEGKKLTHREFERRYGASEKDFATIAKFAAGHGLAVDHHASSLARRTVVLRGTARQMQQAFGVTLHDYEDSETQQRYHSFTGAITVPAAHARIIESVLGLDARPIAKPHFRVRKRSAAATGAVSFNPPQVASLYSFPTGVDGSGETIGILELGGGYETSDIQQYFSGLGIQPPTVVAVSVDGAVNAPGNPNGADGEVALDIQVAGSIAPGAKLAVYFAPNTEQGFVDAITTAVHDTANKPSVLSISWGGPESSWPQAAAQSLNNACESAAALGVTITVASGDNGSTDGVQDGQNHVDFPASSPYVLACGGTYLAAVNNGVPQESVWDDLASGGGATGGGVSALFPLPAWQTGANVPGGSMRGVPDVAGDASPESGYNVLVDGQPQVVGGTSAVAPLWAALIALVNQQKGEAAGFVNAALYQNPSAFHDITQGSNGAYAAAPGWDPCTGLGSPMGTAIAKILA
B7: Homologue 16 (NCBI YP_003387700) (protein)
chain: MSAFDQLVPLPGSEKTVPDAAPSQTLDPNEVLTVTIRIRRKRTLASLVSTTAPVTEVVSRSEYASRFGADPAIVKQVEAFASAYDLSLVEQSLARRSVLLRGTVAQMEQAFGVSLANYQLADGTVFRGRTGVVNVPSELVEHIEGVFGLDNRPQARAHFQVYKPEKGTKVAPRAGGISYTPPQLARLYNFPTGVTGKGQCIAIIELGGGFRTADIKTYFGGLGLKPPTVVAVSVDGGHNAPSTADSADGEVMLDIDVAGGVAPGAKIVVYFAPNTDQGFLDAITTAMHDTKNKPSVISISWGAAESNWTPQALTSFNQAFQAAAALGITVCAAAGDTGSDDSVGDGKAHVDFPASSPFVLACGGTKLTATDNVIASEVVWHESKTSATGGGVSDVFDLPDYQQKSHVPPSVNDKTRIGRGVPDVAAVADPVTGYAVRVDGSNLVFGGTSAVAPLMAGLIALINQQRGKAVGFIHPLIYANPSAFRDITQGNNTTTTGNKGYAATTGWDACTGLGVADGKKLASVLTATPVA
B8: Homologue 17 (NCBI YP_004216463) (protein)
chain: MAATPRFASQPRVTLPGSQKHPLTTDTEVPPPAPVKAAATKLSATPFTVTVIVKRKNPLNLKQVLKPAGRLTHAAFAKAHGPSPDGVKLVKAFAKEFGLTVAPAPGQGRRALYLTGTAAAMQTAFGVTFATKIMEGTKYRVREGDICLPKELIGHVDAVLGLDNRPQAKPHFRHHKPAATSVSYTPVQVGQLYGFPSGAKATGQTIGLIELGGGFRAADITAYFKTLGQTAPKVTAVLVDKAKNTPTTSSSADGEVMLDIEVAAAVAPGANIAVYFAPNTDQGFIDAISQAVHDTVNKPSVISISWGGPESTWTAQSLAALDAACQSAAALGITITVAAGDDGSTDGVKGTVNHVDFPASSPHVLGCGGTKLLGSGTTITSEVVWNELTANEGATGGGVSNVFPLPTWQAKSNVPKPTVAAGGRGVPDVSGNADPSTGYTVRVDGSTFPIGGTSAVAPLWAGLIALCNAQNKTTAGFINPALYAAAAAKSFRDITSGNNGGFKAGPGWDACTGLGSPIGTAIAKTLAPATKSTSKTAVKNAPEIRFRPHKKAPTKTAAKTPALRRLK
B9: Homologue 19 (NCBI YP_005056054) (protein)
chain: MPTSSRFASQSRVPLPGSERKPFVPAGAPKAAKTPKVSTAVKTVPATGRIRVSLIVPPKQPLDTKRLGKLDARLSRAQFAARHGADPASVRLVKAFAKEFGLTVEPITQPGRCTVQLSGTCAAMRKAFAISLVEHTTEQGKFRLREGEISLPAELEGHVLAVLGLDNRPQAKPHFRIAKPRATNVSYTPVQVAQMYGFPAGATATGQTIGIIELGGGYRAADLTAYFKTLGLPAPTVTAVPIDGGKNTPGNANGADGEVMLDIEVCAAVAQGAKIAVYFTTNTDQGFIDAITTAVHDSTNKPSVISISWGGPESSWTEQSMTALDAACQAAAAVGVTITVAAGDNGSSDGASGDNVDFPASSPHVLACGGTKLVGSGSTITSEVVWDETSNDEGATGGGVSTVFALPTWQKNANVPSPTTSAGGRGVPDVSGDADPSTGYTIRVDSETTVIGGTSAVAPLWAGLIALANAQNKVAAGFVNPALYAAGAKKAFRDITQGNNGSFSAGPGWDACTGLGSPVGNLVIQAVAPKSTTTKKAKKGKTK

Biological target: T1, Glia_56-79 peptide (LQLQPFPQPQLPYPQPQLPY)
T1 chain: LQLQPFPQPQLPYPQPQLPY

| Protein | grade and % of peptide after an 80-min incubation |
| --- | --- |
| B1 | ++; 1.6% |
| B2 | ++; 0.6% |
| B3 | -; 85% |
| B4 | ++; 0.4% |
| B5 | ++; 0.2% |

Biological target: T2, α9-gliadin peptide (QLQPFPQPQLPY)
T2 chain: QLQPFPQPQLPY

| Protein | grade and % of peptide after an 80-min incubation |
| --- | --- |
| B1 | -; 80% |
| B2 | ++/-; 25%; |
| B3 | -; 114% |
| B4 | ++/-; 34%; |
| B5 | ++/-; 37%; |

Biological target: T3, α2-gliadin peptide (PQPQLPYSQPQPFR)
T3 chain: PQPQLPYSQPQPFR

| Protein | grade and % of peptide after an 80-min incubation |
| --- | --- |
| B1 | ++ (undetect) |
| B2 | ++ (undetect) |
| B3 | -; 87% |
| B4 | ++ (undetect) |
| B5 | ++ (undetect) |

Biological target: T4, γ-gliadin peptide (IQPQQPAQL)
T4 chain: IQPQQPAQL

| Protein | grade and % of peptide after an 80-min incubation |
| --- | --- |
| B1 | ++/-; 29% |
| B2 | +; 12% |
| B3 | -; 102% |
| B4 | ++/-; 40% |
| B5 | +/-; 65% |

Biological target: T5, fluorescent analogue of gliadin, hexapeptide QPQLPY conjugated to a fluorophore and a quencher
T5 chain: QPQLPY

| Protein | rate of degradation of the fluorescent hexapeptide, pH 4.0, 37° C. | rate of degradation of the fluorescent hexapeptide, pH 4 |
| --- | --- | --- |
| B1 | had activity comparable to or better than Kumamolisin under these conditions | – |
| B2 | had activity comparable to or better than Kumamolisin under these conditions | – |
| B3 | – | no activity was seen for this homologue in the fluorescent experiment conducted at pH 4 |
| B5 | had activity comparable to or better than Kumamolisin under these conditions | – |

Biological target: T6, 33mer peptide (LQLQPFPQPQLPYPQPQLPYPQPQLPYPQPQPF)
T6 chain: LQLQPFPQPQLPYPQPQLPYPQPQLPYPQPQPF

| Protein | Degradation pattern of 33mer (60 min) | activity on peptide (percent) |
| --- | --- | --- |
| B6 | WT-like | – |
| B1 | – | 46% |
| B7 | WT-like | – |
| B2 | WT-like | 38% |
| B8 | WT-like - minor | – |
| B5 | – | 31% |
| B9 | WT-like - minor | – |
